# Reference: PMC7905944 (Science signaling, 2020)
# Target: the molecule itself
# Test: cross-linking
protein,measurement,value
"endogenous LGR5 of LoVo cells (receptor, human (endogenous in LoVo), UniProt O75473 22-907, looked up) GSSPRSGVLLRGCPTHCHCEPDGRMLLRVDCSDLGLSELPSNLSVFTSYLDLSMNNISQLLPNPLPSLRFLEELRLAGNALTYIPKGAFTGLYSLKVLMLQNNQLRHVPTEALQNLRSLQSLRLDANHISYVPPSCFSGLHSLRHLWLDDNALTEIPVQAFRSLSALQAMTLALNKIHHIPDYAFGNLSSLVVLHLHNNRIHSLGKKCFDGLHSLETLDLNYNNLDEFPTAIRTLSNLKELGFHSNNIRSIPEKAFVGNPSLITIHFYDNPIQFVGRSAFQHLPELRTLTLNGASQITEFPDLTGTANLESLTLTGAQISSLPQTVCNQLPNLQVLDLSYNLLEDLPSFSVCQKLQKIDLRHNEIYEIKVDTFQQLLSLRSLNLAWNKIAIIHPNAFSTLPSLIKLDLSSNLLSSFPITGLHGLTHLKLTGNHALQSLISSENFPELKVIEMPYAYQCCAFGVCENAYKISNQWNKGDNSSMDDLHKKDAGMFQAQDERDLEDFLLDFEEDLKALHSVQCSPSPGPFKPCEHLLDGWLIRIGVWTIAVLALTCNALVTSTVFRSPLYISPIKLLIGVIAAVNMLTGVSSAVLAGVDAFTFGSFARHGAWWENGVGCHVIGFLSIFASESSVFLLTLAALERGFSVKYSAKFETKAPFSSLKVIILLCALLALTMAAVPLLGGSKYGASPLCLPLPFGEPSTMGYMVALILLNSLCFLMMTIAYTKLYCNLDKGDLENIWDCSMVKHIALLLFTNCILNCPVAFLSFSSLINLTFISPEVIKFILLVVVPLPACLNPLLYILFNPHFKEDLVSLRKQTYVWTRSKHPSLMSINSDDVEKQSCDSTQALVTFTSSSITYDLPPSSVPSPAYPVTESCHLSSVAFVPCL",stoichiometry N,2
